How the values were obtained:
human FcγRIIβ [1] = biological target: T1, human FcγRIIβ (human, UniProt P31994 46-217, limits assumed); experiment: ratio of KD on FcγRIIα R131 to KD on FcγRIIβ, Table 29
T1 construct: also called FcγRIIb; R2b
T1 sequence (looked up): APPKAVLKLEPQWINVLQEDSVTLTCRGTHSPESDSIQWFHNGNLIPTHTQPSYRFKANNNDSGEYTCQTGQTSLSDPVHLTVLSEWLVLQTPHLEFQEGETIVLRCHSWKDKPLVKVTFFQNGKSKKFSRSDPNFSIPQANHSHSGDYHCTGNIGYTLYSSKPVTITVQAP

[2] = biological target: PD-1 (in the reporter cells of the PD-1 agonism assay) (Homo sapiens (Human), UniProt Q15116 25-288); experiment: cell-based or functional assay
human FcγRIIβ [3] = biological target: T1, human FcγRIIβ; experiment: Fc receptor affinity, Table 29 (method for Fc receptors not told in Example 43)
FcγRI = experiment: as above
Cyno PD-1 = biological target: T2, Cyno PD-1 (cyno); experiment: BLI (Octet RED96), antibody captured on anti-human IgG Fc biosensors, PD-1 titrated; steady state (footnote *)
T2 construct: also called cynomolgus PD-1; cyPD1

Recombinant human PD-1 = biological target: T3, Recombinant human PD-1 (human, UniProt Q15116 25-170, limits assumed); experiment: as above
T3 construct: Soluble recombinant analyte in BLI; also called huPD1

human FcγRIIβ [4] = biological target: T1, human FcγRIIβ; experiment: SPR, antibody captured on ProA/G HC30M chip, recombinant human FcγRIIβ injected (4 nM-5 uM); average kinetic KD
Experimental: (§1) Example 52: The binding of anti-FcγRIIβ antibodies to human FcγRIIβ was evaluated. Antibodies were captured on ProA/G HC30M chip at 5 ug/mL, 1 ug/mL, and 0.2 ug/mL for 15 minutes. Six buffer injections were made over the chip followed by injections of increasing concentrations of recombinant human FcγRIIβ (4 nm-5 uM). The association was measured during each injection for 5 minutes and the dissociation was measured for 10 minutes post injection with buffer flow (1×HBSTE+ BSA).

human FcγRIIβ [5] = biological target: T1, human FcγRIIβ; experiment: SPR, antibody captured on ProA/G HC30M chip, recombinant human FcγRIIβ injected (4 nM-5 uM); average steady state KD
Experimental: as §1

Chain of PD-1 (in the reporter cells of the PD-1 agonism assay) (Q15116 25-288 limits assumed): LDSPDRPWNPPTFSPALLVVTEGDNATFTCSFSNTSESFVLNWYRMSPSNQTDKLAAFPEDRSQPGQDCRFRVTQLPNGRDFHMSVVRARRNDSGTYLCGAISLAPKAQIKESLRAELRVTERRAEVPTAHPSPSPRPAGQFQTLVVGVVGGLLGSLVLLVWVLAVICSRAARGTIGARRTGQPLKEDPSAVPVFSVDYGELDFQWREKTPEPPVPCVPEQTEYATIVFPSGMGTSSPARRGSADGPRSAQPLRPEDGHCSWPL
Chain of FcγRI (P12314 16-292): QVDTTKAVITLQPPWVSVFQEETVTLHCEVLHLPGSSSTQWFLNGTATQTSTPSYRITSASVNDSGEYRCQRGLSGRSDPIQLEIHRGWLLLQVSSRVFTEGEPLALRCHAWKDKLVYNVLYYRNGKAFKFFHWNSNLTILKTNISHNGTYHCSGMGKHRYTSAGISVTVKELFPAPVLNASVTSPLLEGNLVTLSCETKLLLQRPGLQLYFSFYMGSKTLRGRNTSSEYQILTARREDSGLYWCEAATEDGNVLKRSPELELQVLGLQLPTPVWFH
T3 sequence (Q15116 25-170 limits assumed): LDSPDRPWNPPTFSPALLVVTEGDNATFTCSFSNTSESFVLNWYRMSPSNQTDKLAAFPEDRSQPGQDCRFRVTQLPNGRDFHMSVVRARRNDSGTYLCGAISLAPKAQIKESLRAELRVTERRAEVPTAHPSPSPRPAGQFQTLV

B1: TA322 (antibody, human IgG1, kappa)
heavy: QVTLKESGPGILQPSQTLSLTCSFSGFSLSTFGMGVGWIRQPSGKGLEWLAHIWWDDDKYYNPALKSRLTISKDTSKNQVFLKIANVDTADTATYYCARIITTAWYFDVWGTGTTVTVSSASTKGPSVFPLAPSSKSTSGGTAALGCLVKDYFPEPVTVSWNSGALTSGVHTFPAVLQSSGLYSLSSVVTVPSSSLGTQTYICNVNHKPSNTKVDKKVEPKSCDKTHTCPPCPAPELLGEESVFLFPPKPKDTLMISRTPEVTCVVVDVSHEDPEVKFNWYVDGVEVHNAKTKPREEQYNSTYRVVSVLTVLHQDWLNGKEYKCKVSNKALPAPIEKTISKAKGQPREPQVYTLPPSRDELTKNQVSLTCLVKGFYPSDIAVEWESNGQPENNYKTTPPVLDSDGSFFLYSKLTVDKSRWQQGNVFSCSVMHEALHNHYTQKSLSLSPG
light: QAVVTQESALTTSPGETVTLTCRSSTGAVTTSNYANWVQEKPDHLFTGLIGGTNNRAPGVPARFSGSLIGDKAALTITGAQTEDEAIYFCALWYSNHFIFGSGTKVTVLRTVAAPSVFIFPPSDEQLKSGTASVVCLLNNFYPREAKVQWKVDNALQSGNSQESVTEQDSKDSTYSLSSTLTLSKADYEKHKVYACEVTHQGLSSPVTKSFNRGEC
- R131/2b (fold) (human FcγRIIβ [1]): 9.7 fold
- Emax [2]: 2.1
- log EC50 [2]: -8.3
- Kd (human FcγRIIβ [3]): 3500 nM
- Affinity to RI relative to WT (FcγRI): > 10 fold lower than WT

B2: TA359 (antibody, human IgG1, lambda)
heavy: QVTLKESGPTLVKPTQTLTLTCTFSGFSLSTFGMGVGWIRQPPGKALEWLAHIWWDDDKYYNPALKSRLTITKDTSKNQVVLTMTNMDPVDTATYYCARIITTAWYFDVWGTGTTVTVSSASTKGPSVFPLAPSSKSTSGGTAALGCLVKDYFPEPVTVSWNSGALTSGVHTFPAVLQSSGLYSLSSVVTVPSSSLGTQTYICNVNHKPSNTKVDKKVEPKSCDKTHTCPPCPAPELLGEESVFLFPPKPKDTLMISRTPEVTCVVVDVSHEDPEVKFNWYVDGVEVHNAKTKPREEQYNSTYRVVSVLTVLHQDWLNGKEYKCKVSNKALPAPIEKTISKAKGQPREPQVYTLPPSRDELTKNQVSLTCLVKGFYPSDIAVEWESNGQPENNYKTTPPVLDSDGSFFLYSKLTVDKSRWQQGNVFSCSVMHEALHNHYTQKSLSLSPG
light: QAVVTQEPSLTVSPGGTVTLTCRSSTGAVTTSNYANWVQQKPGQAFRGLIGGTNNRAPGVPDRFSGSILGNKAALTITGAQADDESDYYCALWYSNHFIFGSGTKVTVLGQPKAAPSVTLFPPSSEELQANKATLVCLISDFYPGAVTVAWKADSSPVKAGVETTTPSKQSNNKYAASSYLSLTPEQWKSHRSYSCQVTHEGSTVEKTVAPTECS
- Kd (Cyno PD-1): 600 nM
- Kd (Recombinant human PD-1): 1000 nM
- Emax [2]: 2.2
- log EC50 [2]: -8.3
- Kd (human FcγRIIβ [3]): 3100 nM
- Affinity to RI relative to WT (FcγRI): > 10 fold lower than WT

B3: ARB49 (antibody, human IgG1, kappa)
heavy: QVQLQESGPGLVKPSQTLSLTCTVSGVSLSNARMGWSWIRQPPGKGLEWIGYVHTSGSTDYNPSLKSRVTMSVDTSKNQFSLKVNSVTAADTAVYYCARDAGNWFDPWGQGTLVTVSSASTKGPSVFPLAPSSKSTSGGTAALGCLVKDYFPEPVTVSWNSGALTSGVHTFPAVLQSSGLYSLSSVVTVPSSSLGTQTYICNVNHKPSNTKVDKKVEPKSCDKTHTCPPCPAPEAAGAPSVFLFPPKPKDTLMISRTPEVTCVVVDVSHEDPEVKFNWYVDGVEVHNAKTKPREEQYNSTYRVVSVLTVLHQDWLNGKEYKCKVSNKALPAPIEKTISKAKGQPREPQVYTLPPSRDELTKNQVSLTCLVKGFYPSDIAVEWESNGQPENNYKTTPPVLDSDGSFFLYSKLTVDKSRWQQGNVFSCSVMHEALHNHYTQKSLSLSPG
light: EIVMTQSPATLSLSPGERATLSCRASQSLSSSHLAWYQQKPGQAPRLLIYDASIRVPGIPARFSGSGSGTDFTLTISSLEPEDFAVYYCQQYAVPPITFGGGTKVEIKRTVAAPSVFIFPPSDEQLKSGTASVVCLLNNFYPREAKVQWKVDNALQSGNSQESVTEQDSKDSTYSLSSTLTLSKADYEKHKVYACEVTHQGLSSPVTKSFNRGEC
notes: copies: 2 + 2
- Kd (human FcγRIIβ [4]): 37.3 nM
- Kd (human FcγRIIβ [5]): 40 nM

— patent publication US20240368283A1 (published 2024)
